Laboratory results reported in article PMC10343800, “A Novel LSTM-Based Machine Learning Model for Predicting the Activity of Food Protein-Derived Antihypertensive Peptides” (Molecules, 2023).
Ends that are not written are not given here. Peptide text beside a SMILES is read from it.

biological target: T1, ACE (Homo sapiens, UniProt P12821); experiment: not given; settings: in vitro ACE inhibition; read-out: Reported IC50; cited from earlier work
T1 sequence (P12821 30-1306, species assumed): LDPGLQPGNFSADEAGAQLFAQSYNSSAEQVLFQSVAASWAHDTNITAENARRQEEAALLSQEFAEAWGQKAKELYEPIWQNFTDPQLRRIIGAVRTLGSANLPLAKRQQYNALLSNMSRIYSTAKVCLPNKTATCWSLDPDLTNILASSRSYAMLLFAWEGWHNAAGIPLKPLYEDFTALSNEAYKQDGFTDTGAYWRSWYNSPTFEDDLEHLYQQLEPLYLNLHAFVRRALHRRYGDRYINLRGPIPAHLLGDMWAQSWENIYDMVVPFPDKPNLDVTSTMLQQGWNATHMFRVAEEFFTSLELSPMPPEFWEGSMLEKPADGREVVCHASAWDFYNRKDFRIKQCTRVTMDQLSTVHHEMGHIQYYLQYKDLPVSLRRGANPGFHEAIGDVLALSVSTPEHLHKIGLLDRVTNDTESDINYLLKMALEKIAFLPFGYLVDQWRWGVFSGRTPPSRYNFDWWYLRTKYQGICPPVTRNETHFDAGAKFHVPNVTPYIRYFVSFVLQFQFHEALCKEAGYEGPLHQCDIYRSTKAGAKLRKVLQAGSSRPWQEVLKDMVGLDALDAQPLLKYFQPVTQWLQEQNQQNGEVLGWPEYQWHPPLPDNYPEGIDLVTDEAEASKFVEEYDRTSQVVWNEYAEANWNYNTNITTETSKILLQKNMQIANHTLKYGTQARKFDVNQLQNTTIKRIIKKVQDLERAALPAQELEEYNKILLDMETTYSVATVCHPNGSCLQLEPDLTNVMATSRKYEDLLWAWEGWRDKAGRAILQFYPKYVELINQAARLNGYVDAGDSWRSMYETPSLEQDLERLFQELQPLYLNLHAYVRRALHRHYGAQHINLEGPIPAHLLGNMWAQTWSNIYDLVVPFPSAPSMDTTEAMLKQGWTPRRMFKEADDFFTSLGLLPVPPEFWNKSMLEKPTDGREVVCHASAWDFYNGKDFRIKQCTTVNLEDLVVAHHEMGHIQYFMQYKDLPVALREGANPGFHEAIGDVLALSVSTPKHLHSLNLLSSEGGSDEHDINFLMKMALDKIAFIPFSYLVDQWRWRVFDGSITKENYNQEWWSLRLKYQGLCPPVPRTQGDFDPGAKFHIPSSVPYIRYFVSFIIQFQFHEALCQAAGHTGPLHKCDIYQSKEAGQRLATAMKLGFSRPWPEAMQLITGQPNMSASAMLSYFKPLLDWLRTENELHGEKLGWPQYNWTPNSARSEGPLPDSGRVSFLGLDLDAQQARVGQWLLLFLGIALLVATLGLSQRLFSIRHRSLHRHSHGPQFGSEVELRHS

Compound | IC50
AFVGYVLP | 14.4 µM
CTFSIPAQC | 24.4 µM
DAQSAPLRVY | 12.2 µM
DKVGINYW | 25.4 µM
EKSYELP | 18 µM
GAAELPCSADWW | 11 µM
HLNVVHGN | 50.9 µM
IISKIK | 1.19 µM
ILSKLK | 4.02 µM
IPPAYTK | 23.5 µM
KGYGGVSLPEW | 0.7 µM
KIDKVVK | 0.62 µM
LDSPSEGRAPG | 17.9 µM
LEEFCC | 1.85 µM
LLVTLKK | 0.95 µM
LRLESF | 5.39 µM
LVLPGE | 13.5 µM
LVLPGELAK | 184 µM
MLPAY | 1.58 µM
PAGELHP | 0.5 µM
PGSGCAGTDL | 57.9 µM
RDGGYCC | 0.84 µM
TFQGGlPPHGIQVER (TFQGGPPHGIQVER) | 3.4 µM
TVTNPARIA | 14.5 µM
VDSDVVK | 8.64 µM
VELYP | 5.22 µM
VISDEDGVTH | 8.16 µM
WQVLPNAVPAK | 1010 µM

biological target: T1, ACE; experiment: biochemical; settings: not given
Method: An online tool (https://www.genscript.com/sms2/random_protein.html accessed on 1 March 2023) was used to randomly generate peptides in order to test the efficiency of the model. The top peptides with a small number of IC50 values were selected for synthesis. […] The peptides used for validation were synthesized by Genescript with a purity > 97%. The ACE inhibitory assay was performed according to a previous study with modifications. ACE, N-hippuryl-His-Leu tetrahydrate (HHL, Sigma-Aldrich, St. Louis, MI, USA) and the peptide samples were dissolved in 100 mM of boric acid containing 300 mM of NaCl (pH8.3). Firstly, 10 μL of the peptide solution was preincubated with 50 μL of 6.5 mM HHL at 37 °C for 5 min. Then, 5 μL of 0.1UN/mL ACE (preincubated at 37 °C) was added to the reaction system and incubated at 37 °C for another 30 min. The reaction was terminated by adding 85 μL of 1 M HCl. The concentration of hippuric acid (Hip, the reaction product) was measured by HPLC with a C18 column (5 µm, 250 mm × 4.6 mm). The sample (20 μL) was eluted by a gradient of solvent A (H2O with 0.05% TFA) and solvent B (acetonitrile with 0.05% TFA) at a flow rate of 1.2 mL/min. The absorbance at 228 nm was monitored. The concentration of HA was calculated based on its standard curve. The area under each peak was calculated, in which A = the area under the peak of the blank group (without the peptide) and B = the area under the peak of the peptide group. The ACE inhibitory ratio = (A − B)/A. The ACE inhibitory ratio of each peptide at different concentrations was measured.

Compound | IC50
CC(C)C[C@H](NC(=O)[C@H](C)N)C(=O)N1CCC[C@H]1C(=O)N[C@@H](CC(=O)O)C(=O)O [ALPD] (H-ALPD-OH) | 1.55 µM
C[C@H](NC(=O)[C@H](CCCCN)NC(=O)[C@H](CC(=O)O)NC(=O)[C@@H](N)Cc1ccccc1)C(=O)O [FDKA] (H-FDKA-OH) | 0.6 µM
CC[C@H](C)[C@H](NC(=O)[C@@H](N)Cc1ccccc1)C(=O)O [FI] (H-Phe-Ile-OH) | 0.31 µM
C[C@H](NC(=O)[C@@H]1CCCN1C(=O)CN)C(=O)N[C@@H](Cc1ccc(O)cc1)C(=O)O [GPAY] (H-GPAY-OH) | 0.37 µM
CC(C)[C@H](NC(=O)CN)C(=O)N1CCC[C@H]1C(=O)N[C@@H](CCCCN)C(=O)O [GVPK] (H-GVPK-OH) | 0.25 µM
N=C(N)NCCC[C@H](NC(=O)[C@H](Cc1c[nH]cn1)NC(=O)[C@H](CC(=O)O)NC(=O)[C@@H](N)Cc1c[nH]cn1)C(=O)O [HDHR] (H-HDHR-OH) | 0.59 µM
CC[C@H](C)[C@H](NC(=O)[C@@H]1CCCN1C(=O)[C@H](CCCCN)NC(=O)[C@@H](N)CC(C)C)C(=O)O [LKPI] (H-LKPI-OH) | 0.39 µM
CC(C)C[C@H](NC(=O)[C@@H](NC(=O)[C@@H](N)CC(C)C)C(C)C)C(=O)O [LVL] (H-Leu-Val-Leu-OH) | 0.32 µM
FALPC [FALPC] | 0.16 µM
IQWCA [IQWCA] | 0.1 µM
KLPAY [KLPAY] | 0.12 µM
LKPDQ [LKPDQ] | 0.88 µM
LKPNS [LKPNS] | 0.5 µM
PDFLI [PDFLI] | 0.33 µM
PLPLL [PLPLL] | 0.2 µM
VAWKL [VAWKL] | 0.23 µM
VHLAP [VHLAP] | 0.33 µM
VYHEL [VYHEL] | 0.38 µM

same assay, conditions: 6.5 mM HHL, 0.1 UN/mL ACE, 100 mM boric acid with 300 mM NaCl pH 8.3, 37 °C, 5 min preincubation, 30 min incubation; hippuric acid by HPLC C18, 228 nm; read-out: Experimental IC50

Compound | IC50
CC(C)C[C@H](NC(=O)[C@H](CCCCN)NC(=O)[C@@H](N)CC(C)C)C(=O)O [LKL] (H-Leu-Lys-Leu-OH) | 0.56 µM
N[C@@H](Cc1c[nH]c2ccccc12)C(=O)N[C@@H](CC(=O)O)C(=O)O [WD] (H-Trp-Asp-OH) | 0.51 µM
